Measurements: the supplement of paper PMC9112550, “Optimization of the antimicrobial peptide Bac7 by deep mutational scanning” (BMC Biology, 2022)

tested on: Escherichia coli TOP10; experiment: shrunken log2 fold change of peptide-encoding DNA abundance (4.5 h post-induction vs induction); higher = less antimicrobial activity (less host growth inhibition); conditions: time post-induction: 4.5 h; library: site-saturation at positions 5, 18, 19, 20
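Further: peptides expressed intracellularly from a pBAD plasmid library in pooled LB shake-flask culture, induced with 0.3% L-arabinose, DNA abundance read by NGS, three biological replicates, DESeq2 with apeglm shrinkage.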

| Sequence | shrunken log2 fold change |
| --- | --- |
| RRIRVRPPRLPRPRPRPLKMPRP | -0.561 |
| RRIRVRPPRLPRPRPRPGWIPRP | 0.486 |
| RRIRHRPPRLPRPRPRPGLHPRP | -0.308 |
| RRIRARPPRLPRPRPRPAAKPRP | 1.04 |
| RRIRYRPPRLPRPRPRPHLWPRP | -0.255 |
| RRIRDRPPRLPRPRPRPHESPRP | -0.0121 |
| RRIRLRPPRLPRPRPRPQFAPRP | 0.0774 |
| RRIRQRPPRLPRPRPRPMRHPRP | 2.84 |
| RRIRDRPPRLPRPRPRPLFNPRP | -0.375 |
| RRIRMRPPRLPRPRPRPLKQPRP | 0.513 |
| RRIRSRPPRLPRPRPRPYLQPRP | -0.176 |
| RRIRKRPPRLPRPRPRPNFYPRP | 0.0337 |
| RRIRQRPPRLPRPRPRPVPDPRP | 0.106 |
| RRIRIRPPRLPRPRPRPQQNPRP | -0.318 |
| RRIRPRPPRLPRPRPRPHGRPRP | -0.0223 |
| RRIRYRPPRLPRPRPRPMPCPRP | -0.0166 |
| RRIRDRPPRLPRPRPRPTFWPRP | 0.588 |
| RRIRYRPPRLPRPRPRPDFAPRP | 0.0515 |
| RRIRLRPPRLPRPRPRPMCHPRP | -0.0587 |
| RRIRYRPPRLPRPRPRPNRSPRP | -0.496 |
| RRIRDRPPRLPRPRPRPILKPRP | 0.0239 |
| RRIRKRPPRLPRPRPRPHNSPRP | -0.24 |

| Sequence | shrunken log2 fold change |
| --- | --- |
| RRIRSRPPRLPRPRPRPFRKPRP | -0.176 |
| RRIRTRPPRLPRPRPRPKTCPRP | 0.012 |
| RRIRFRPPRLPRPRPRPKTNPRP | 0.0585 |
| RRIRPRPPRLPRPRPRPMTDPRP | 0.0653 |
| RRIRLRPPRLPRPRPRPHWSPRP | 0.0161 |
| RRIRDRPPRLPRPRPRPKGFPRP | -0.073 |
| RRIRYRPPRLPRPRPRPASRPRP | -0.0366 |
| RRIRYRPPRLPRPRPRPQQVPRP | -0.0456 |
| RRIRCRPPRLPRPRPRPSMEPRP | -0.344 |
| RRIRFRPPRLPRPRPRPVMHPRP | -0.461 |
| RRIRIRPPRLPRPRPRPLHRPRP | -0.307 |
| RRIRQRPPRLPRPRPRPARKPRP | 0.0862 |
| RRIRWRPPRLPRPRPRPERDPRP | 0.128 |
| RRIRRRPPRLPRPRPRPRYGPRP | 0.0155 |
| RRIRQRPPRLPRPRPRPATEPRP | -0.037 |
| RRIRQRPPRLPRPRPRPPTIPRP | 2.14 |
| RRIRSRPPRLPRPRPRPFGVPRP | -0.448 |
| RRIRMRPPRLPRPRPRPIHHPRP | -0.724 |
| RRIRKRPPRLPRPRPRPTIFPRP | 0.2 |
| RRIRYRPPRLPRPRPRPGMSPRP | -0.137 |
| RRIRPRPPRLPRPRPRPINKPRP | -0.641 |
| RRIRSRPPRLPRPRPRPHCMPRP | -0.344 |

| Sequence | shrunken log2 fold change |
| --- | --- |
| RRIRVRPPRLPRPRPRPFGLPRP | -0.0857 |
| RRIRNRPPRLPRPRPRPVMFPRP | -0.0883 |
| RRIRKRPPRLPRPRPRPNWVPRP | -0.087 |
| RRIRVRPPRLPRPRPRPILDPRP | -0.224 |
| RRIRGRPPRLPRPRPRPISTPRP | 0.289 |
| RRIRTRPPRLPRPRPRPDLAPRP | 0.132 |
| RRIRLRPPRLPRPRPRPLKRPRP | -0.0716 |
| RRIRIRPPRLPRPRPRPVCKPRP | -0.21 |
| RRIRRRPPRLPRPRPRPSVAPRP | 0.478 |
| RRIRDRPPRLPRPRPRPRMDPRP | -0.0354 |
| RRIRGRPPRLPRPRPRPAVPPRP | 0.686 |
| RRIRERPPRLPRPRPRPHRCPRP | -0.0136 |
| RRIRARPPRLPRPRPRPAPVPRP | 0.627 |
| RRIRTRPPRLPRPRPRPMLSPRP | -0.41 |
| RRIRPRPPRLPRPRPRPSLDPRP | -0.0512 |
| RRIRLRPPRLPRPRPRPPSKPRP | 0.148 |
| RRIRQRPPRLPRPRPRPWCNPRP | -0.00865 |
| RRIRLRPPRLPRPRPRPYQFPRP | -0.0128 |
| RRIRTRPPRLPRPRPRPPMEPRP | -0.00995 |
| RRIRQRPPRLPRPRPRPTKGPRP | -0.0785 |
| RRIRTRPPRLPRPRPRPTTTPRP | 0.168 |
| RRIRDRPPRLPRPRPRPYTVPRP | -0.00865 |

| Sequence | shrunken log2 fold change |
| --- | --- |
| RRIRERPPRLPRPRPRPWWCPRP | -0.426 |
| RRIRPRPPRLPRPRPRPGDNPRP | -0.00764 |
| RRIRARPPRLPRPRPRPHYTPRP | 0.203 |
| RRIRNRPPRLPRPRPRPVTNPRP | 0.0485 |
| RRIRVRPPRLPRPRPRPVSIPRP | 0.126 |
| RRIRLRPPRLPRPRPRPTWCPRP | 0.107 |
| RRIRERPPRLPRPRPRPCRFPRP | -0.455 |
| RRIRERPPRLPRPRPRPKLLPRP | 0.0473 |
| RRIRDRPPRLPRPRPRPGNCPRP | 0.153 |
| RRIRPRPPRLPRPRPRPSPHPRP | -0.367 |
| RRIRDRPPRLPRPRPRPRFIPRP | -0.233 |
| RRIRFRPPRLPRPRPRPRQYPRP | -0.465 |
| RRIRSRPPRLPRPRPRPMWFPRP | 0.14 |
| RRIRVRPPRLPRPRPRPEPGPRP | 0.547 |
| RRIRFRPPRLPRPRPRPNRHPRP | -0.874 |
| RRIRFRPPRLPRPRPRPHTFPRP | -0.778 |
| RRIRARPPRLPRPRPRPTGKPRP | 0.215 |
| RRIRRRPPRLPRPRPRPCRWPRP | 0.11 |
| RRIRQRPPRLPRPRPRPTWYPRP | -0.174 |
| RRIRHRPPRLPRPRPRPNMPPRP | 0.0144 |
| RRIRQRPPRLPRPRPRPCFKPRP | -0.407 |
| RRIRHRPPRLPRPRPRPQQDPRP | -0.147 |

| Sequence | shrunken log2 fold change |
| --- | --- |
| RRIRIRPPRLPRPRPRPMVKPRP | -0.0157 |
| RRIRLRPPRLPRPRPRPKKVPRP | -0.0117 |
| RRIRRRPPRLPRPRPRPLKLPRP | -0.0808 |
| RRIRYRPPRLPRPRPRPPTFPRP | -0.457 |
| RRIRSRPPRLPRPRPRPEMYPRP | -0.0223 |
| RRIRWRPPRLPRPRPRPAQMPRP | 0.173 |
| RRIRKRPPRLPRPRPRPSYFPRP | -0.029 |
| RRIRLRPPRLPRPRPRPDDVPRP | -0.00776 |
| RRIRMRPPRLPRPRPRPSEIPRP | -0.00151 |
| RRIRPRPPRLPRPRPRPCGKPRP | 0.0102 |
| RRIRRRPPRLPRPRPRPTQQPRP | 0.707 |
| RRIRIRPPRLPRPRPRPGHPPRP | -0.212 |
| RRIRSRPPRLPRPRPRPCAHPRP | -0.235 |
| RRIRPRPPRLPRPRPRPKVWPRP | 0.318 |
| RRIRIRPPRLPRPRPRPAQWPRP | 0.211 |
| RRIRKRPPRLPRPRPRPANIPRP | 0.214 |
| RRIRDRPPRLPRPRPRPFGCPRP | -0.109 |
| RRIRRRPPRLPRPRPRPDMMPRP | -0.137 |
| RRIRLRPPRLPRPRPRPGIYPRP | -0.318 |
| RRIRKRPPRLPRPRPRPLYVPRP | 0.0738 |
| RRIRHRPPRLPRPRPRPHSFPRP | -0.0282 |
